The values below come from publication PMC10977726.

Bounds are passed on as bounds.

For the first experiment, the target named is biotin-VEGF-A (8-109) (human). The experiment in a line: SPR; […]; Biacore S200, […] (PBS with 0.05% Tween 20, pH 7.4); […].
biotin-VEGF-A (8-109) (human), sequence (P15692 whole entry): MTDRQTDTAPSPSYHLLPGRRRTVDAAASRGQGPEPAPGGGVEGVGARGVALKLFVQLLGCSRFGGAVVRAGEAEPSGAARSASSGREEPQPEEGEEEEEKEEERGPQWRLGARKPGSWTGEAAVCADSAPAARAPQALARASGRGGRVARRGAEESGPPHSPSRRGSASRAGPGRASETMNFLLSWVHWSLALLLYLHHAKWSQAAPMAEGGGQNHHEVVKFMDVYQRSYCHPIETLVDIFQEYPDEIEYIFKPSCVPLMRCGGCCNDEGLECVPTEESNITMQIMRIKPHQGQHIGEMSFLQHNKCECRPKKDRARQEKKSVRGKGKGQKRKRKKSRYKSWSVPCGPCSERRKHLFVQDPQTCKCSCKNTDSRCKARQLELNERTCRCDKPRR
Usually Kd stands for the free concentration of one partner at which half of the binding sites on the other are occupied at equilibrium, for simple one-to-one binding. High values mean a looser complex, low ones a tighter complex. Regarding GCAGKSCKKWSSVHCDAGCFCQIGQQVVYIPGCV (designed binder) [V-MCH-1], the Kd was over 50 µM.

GCMTPWFPFTINCKQDSDCLAGCVCGPNGFCG (designed binder) [V-EET-3] gave a Kd of over 1.5 µM.

In turn, VGECSQPWFINMCNMVDCCSQFGYCGKGPKYCG (designed binder) [V-AMP-1] yielded a Kd of over 3.6 µM.

Molecule GCTTPWVPHHIMCKQDSDCLAGCVCGPNGFCG (designed binder) [V-EET-1] displayed an equilibrium dissociation constant (Kd) of over 20 µM.

GCQTPWFPHQILCKQDSDCLAGCVCGPNGFCG (designed binder) [V-EET-2] had a Kd of over 30 µM.

For the next experiment, the target named is T1, biotin-PDGF-bb (human), P01127.
T1 chain: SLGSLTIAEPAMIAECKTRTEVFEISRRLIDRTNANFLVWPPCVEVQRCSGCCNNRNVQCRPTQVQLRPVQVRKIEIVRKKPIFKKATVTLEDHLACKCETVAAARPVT
The experiment is described as above.
In the case of GCFDDNPFIACKQDSDCLAGCVCWYDTWCG (designed binder, modifications not checked) [P-EET-6], the Kd is over 6.7 µM.

GCSHWLQEMFGFCKQDSDCLAGCVCEISETCG (designed binder, modifications not checked) [P-EET-2]: the Kd was over 20 µM.
